This data set can be described thus: soluble on expression in E. coli; label from the status in PepcDB or PDB records.
Take “MLKLYLPCCRNNSTFAIRFSYASIAVDLILKIRQYMKRLHWILLLMILLIPTESISAKKKTEKSDREIWCDVMYRMAAPVLSNMSEGLLKQNMLVELSPTWDGRNQNVTYMECFGRLMAGLAPWLSLPDDETPEGLQRKQLREWALKSYANAVDPASPDYLLWRQENQTLVDAAFLAESFLRSYDALWMPLDSITKQRYIAEFTDLRRVDPSYSNWLLFSATVESFLRKAGAPSDTYRISSSLRKIEEWYVGDGWYSDGPRFAFDYYNSFVIHPMYIEALEIITEAGKREKIGNMPGCNFHEAIRRAQRFGVILERLISPEGTLPVFGRSITYRTGSLQTLALLAWRNWLPEELSNGQVRAAMTAVIQRMFGDGRNFNTAGFLTLGFNGSQPGISDYYTNNGSLYMASLAFLPLGLSADDPFWTDASQSWTSKKAWEGEEFPKDHSYHKELEHHHHHH”: the “soluble on expression in E. coli” value is on record as “not soluble”. For “MRGSHHHHHHTDPALRAQTQVLFEHPLNEKMRTWLRIEFLIQQLTVNLPIVDHAGALHFFRNVSELLDVFERGEVRTELLKELDRQQRKLQTWIGVPGVDQSRIEALIQQLKAAGSVLISAPRIGQFLREDRLIALVRQRLSIPGGCCSFDLPTLHIWLHLPQAQRDSQVETWIASLNPLTQALTMVLDLIRQSAPFRKQTSLNGFYQDNGGDADLLRLNLSLDSQLYPQISGHKSRFAIRFMPLDTENGQVPERLDFELACCGLCGR”, the “soluble on expression in E. coli” value is “soluble”.

On to “MSLALGSYIERRGELETYFDRTAADTWAKLTSDAPVSGIRATVRAGRDEMRNTLLSWLPADMTGTRLLDAGCGTGALSIEAARRGAKIVAIDLSPTLVAVARERLPDDIDPAAIDFRSGDMLDPELGEFDFVVAMDSLIHYLPHDICRMLATLASRTRQSMAVTFAPKTPLLTLMHFVGGFFPRADRAPAIEPISEKTLRGLVAEDPLLAQWQPGRTHRVSSGFYTSQALEMVREGHHHHHH”, for which the “soluble on expression in E. coli” value was “soluble”.

Turning to “MNINEPSVSIIMATYNSEKFLRETLDSICCQTYGNWELIITDDSSTDNTSDILRDYSERYNNIFYSINEVNQGAAISRNKCISQAKGMYIAFIDSDDLWAHNKLEKHIHFIAEHNSAISFTSYELMNENGIPLGKYVDANIPPVLTYNDMLRKKATIGCSTVILSSKLVGEFKMPLLRTGQDYATWLLLLKKVEVAHHFPKVLTKYRVCKNSISRNKFKKAKRQWQIYREVEKLPFYESIVCFCFYAWRAVFRK”, the “soluble on expression in E. coli” value is on record as “not soluble”. To “MSLCELLGMSANVPTDIVFSFTGLMQRGGGTGPHRDGWGIAFYEGRGVRLFQDPLASVDSEVARLVQRFPIKSETVIGHIRQANVGKVGLSNTHPFIRELGGRYWTFAHNGQLADFQPKPGFYRPVGETDSEAAFCDLLNRVRRAFPEPVPVEVLLPVLISACDEYRKKGVFNALISDGDWLFTFCSSKLAYITRRAPFGPARLKDADLTVDFHAETTPDDVVTVIATEPLTDNENWTLQQSGEWVLWWGGEVLAKGEGGSHHHHHH” belongs “soluble”.

Consider “MSLTNIEEFMPEKLAKAIANPLFPELDSLLRSGRHVASEDLDNHALLCEFEHELGLFYQRYNAELVKAPEGFFYLRPRSTSFIARSVLAEIDMLVGKVLCFLYLSPERLAHEGIFTNQELFDELLVLADEQKLMKLVTNRASGSDLDKEKLFDKVRTSLRRLKRLGMIIPVGEQGKFRISEAVFRFGADVRTSDDMKEAQLRLIRDGEAVVVHQEEASQSSLDLDADSNEKPAEEQHELELEGDLLEHHHHHH”, for which the “soluble on expression in E. coli” value is on record as “soluble”.

Turning to “MSEKTYELATFAGGCFWCMVKPFDELPDIHKVLSGYAGGHVENPTYEQVKAGTSGHLEVVQITFDPSIFPYEKLLNLYWPQIDPTDDGGQFFDRGPSYRTAIFYHTETQKELAEKSKHSLAESGMFKDPIVTEIRPAAPFYEAEEYHQHFYKKNPEKYATEQKESGREDFIKENWQKK”, the “soluble on expression in E. coli” value is on record as “not soluble”. Next, “MGSDKIHHHHHHMSTKHAKAAEKFLENPVMAAWHNETLWMVRAKRDKMSKEVPEWEELRDKACALKLYSNSHLEELLLEFEKNATANGAIVHWAKDAEEYRAIVYEILSSHGVKHFVKSKSMLAEECELNPFLIEKGIDVVESDLGERILQLMNLAPSHIVLPAIHIKREQVGELFEKEMGTEKGNFDPTYLTHAARKNLRNIFLNAEAAMTGANFAVASTGDIVVCTNEGNADMGTSCPTLNIAAFGMEKIVPDMEALGVFTRLLARSATGQPITTYTSQYRNPREGGEYHIIIVDNGRSALLAHPDHIKTLNCIRCGACMNTCPVYRRSGGYSYTYFIPGPIGINLGMAHDPEKYYDNLSACSLCMSCSDVCPAKVDLAEQIYKWRQDLDKIGKANTGKKIMSGGMKVLMDHPTLFNAALWAAPVVNHLPRFMKYNDLDAWGKGRELPKFAGESFNEMWKKNKVQGKEENK”: “not soluble”; “TTPTVNATPKIHKRDYQKDVVYLYQFPRIDTVPNLSSFCLKTETFLRAFKIPHEVIETGSLRSRNGTLPFVELNGEHIPDSDLIEVRLRKHFQIPNLSAEDESHATALCRLADNHLLSIIIKYKAAEDAWYSALLRGVPGPNCLKTILKPIVRKLFMKKVHERTGGAIGNFTEDEAEMLCHKDLQAIQDSIKGKYLFGDKITSADCTVFGEVASAYYPFPNKFSRIIDSHYPKLHEYCDRIIEELY”: “not soluble”. To “GPGSMSLTTTARTPATVGKLSPSSGIFSIPDNISPVTAEEVPKSRDSLLTDMSLSELSRQSVLQSEPVVLRLCHVGKSYPIAGSDERVVALKDITLAESKHSNAATTKQGASTTNCLQRSNLPPPFAPVRRGEFVMIRGPSGGGKTTLLNIIGSIDSCTEGNIELNGRIIDKDTKESVLADIRLKNIGFVFQTFNLIATMTAAENVELPMTLLGTMSTKAMRLRSRQLLTLVGLRNRINHLPSELSGGEQQRVTIARSLANNPSILLLDEPTGDLDTANTIEVMDLLMRINRRTKTTCIMVTHNPDIECYADRILYVSDGRFAKEVFNALPMCLDLENYTEYLAAKERAITGFAGVGDVEDDSEPRATAAMAECIGTKGCEIEKPNSSPVLMEPLTEGQSACSIVSPAASRSAVVQPLCPPAAATAPSVNGVTQTVLDTTHHGSASVPPASASSALLQREEREVPNGL” belongs “soluble”; to “MGSDKIHHHHHHMIIGNCLILKDFSSEPFWGAVEIENGTIKRVLQGEVKVDLDLSGKLVMPALFNTHTHAPMTLLRGVAEDLSFEEWLFSKVLPIEDRLTEKMAYYGTILAQMEMARHGIAGFVDMYFHEEWIAKAVRDFGMRALLTRGLVDSNGDDGGRLEENLKLYNEWNGFEGRIFVGFGPHSPYLCSEEYLKRVFDTAKSLNAPVTIHLYETSKEEYDLEDILNIGLKEVKTIAAHCVHLPERYFGVLKDIPFFVSHNPASNLKLGNGIAPVQRMIEHGMKVTLGTDGAASNNSLNLFFEMRLASLLQKAQNPRNLDVNTCLKMVTYDGAQAMGFKSGKIEEGWNADLVVIDLDLPEMFPVQNIKNHLVHAFSGEVFATMVAGKWIYFDGEYPTIDSEEVKRELARIEKELYSS”, “soluble”.

Take “MSLDGPVVFICGKCKLPVGDSLSWDGSEDEQNQIRLKRVTDNVYVGKENRMYEVGKRSLCLIVDLLCQGCHSVLGMVYASTPKNMDHKRFTFCLNVADIDSYVLGSASQSLAAGGAGEQPVTLEYRSQVEEQLSQMKMLVMSMALKLEEIEIGRREGYEREGHHHHHH”: the “soluble on expression in E. coli” value is “not soluble”. Next, “AAAMVPGRSESWERGEPGRPALYFCGSIRGGREDRTLYERIVSRLRRFGTVLTEHVAAAELGARGEEAAGGDRLIHEQDLEWLQQADVVVAEVTQPSLGVGYELGRAVAFNKRILCLFRPQSGRVLSAMIRGAADGSRFQVWDYEEGEVEALLDRYFEADPPGQV”: “not soluble”; “MSLAYKPDDAAPFRSVTRQVLFSDLRLGCEWRYFEVAEGGYSTLERHQHVHATMIHRGRGQCLVGDVISDVAVGDLVFIPPMTWHQFRANAGDVLGFLCLVNADRDREGHHHHHH”: “not soluble”. Next, “MPGNSPHYGRWPQHDFTSLKKLRPQSVTSRIQPGSDVIVCAEMDEQWGYVGAKSRQRWLFYAYDSLRKTVVAHVFGERTMATLGRLMSLLSPFDVVIWMTDGWPLYESRLKGKLHVISKRYTQRIERHNLNLRQHLARLGRKSLSFSKSVELHDKVIGHYLNIKHYQLEHHHHHH”: “soluble”; “MPLEASELKPTAGPLEASELKPTAGPLEASELKPTAGPLEASELKPTAGPLEASELKPTAGPLEASELKPTAGPLEASELKPTAGMYAFKAVKQYFYPSDNLKVLMHKFTDMVNFTINIMIEKNLTSRNSVSNEVYHKLKEYEIPSYYYIEAINKAVALVKTYRKRLKKKQKATVPHVEKPMLSTYYGFKIVGGNLMIPIANREYESIPLNAYVRDATSMVKVHSFALSAYTLSLTIGRDVDAIECTTTVGVDRNLRNATVGNEFHHEIYDLSNVVEIKQRYRKKESHFHRNDRRIREKILSKYGKRERNRVKQIMHETSKAIVSNASTRKEMIVLENIRGINKITKKGDGKGKDYRFLLKNAFPYGMLASQVMYKASWEGLPVIELTRKETRNTSRMCSVCGSLTRIEHGRILKCDSCGLEIDRDVNACINIAFRYRTCLKRSHKGLPGEAVKQSKDVEQMAGSQISTDILEHHHHHH”: “soluble”; “PITDERVYESIGHYGGETVKIVRIEKARDIPLGATVRNEMDSVIISRIVKGGAAEKSGLLHEGDEVLEINGIEIRGKDVNEVFDLLSDMHGTLTFVLIPS”: “soluble”. To “GPGSMHTKVLAPLAGNRIQAAHKFPQVRLQPTLHRLMTRRRQCNLPLRLFHPSSVDFAKHELEAGRIVEVRRDDNSLVALGFYEPHLERVDVFDMTANLAAMLPAISEDFFMARVHEAWERRRRILPQTQSNTYRVVNGYADSLPSLFVDVFSESFVRVVATSFGAERLVTPLLDFLSRRGAEDVLLDTPTLGDAARVSIVTPTISLPQMYVESGVSHLWLRPDMRMPSTDNLFLINPAHRRTRRMMRDVGKGKRVLTIYDRSGSAAMNAVMTAKHVTVVHREETSLEWARTNLICNHSASVFKTCETVCCDPAELRVRHQQDVVYVECHPKFLSTSNQWAELVRSLANNKVIGVGTMLIVAQEEAPLGVHDLLPRRKVFYEGDESKANQDCPMKRRPLADVLRNALEKCHLRLKFLRAFSVACDHPLLPEAESASFSLVYLVEGPALEQVFRVSASSHRTECTDEAA” belongs “not soluble”; to “MQKQRMSGQNQKTDKRIAWPIIIMNFTGVYDYEAFARNNKFIWLDCRHLYGTDGYCDREGALALKGMIADYPAEGVHFIDSGNYHYLTKFWTDKLETPFSLIVFDHHPDMQPPLFDNILSCGSWVKDILDHNNNCKKVIIVGASDKLIQAVPKGYERQVRFYSETTLMHEEGWQNFSSGHINGPVYISIDKDVLKPASAATNWDQGSLSLWELEKLLAVILQKEQVVGIDICGECSTTLNLFEEKRETVMDSQANKELLRFIRSSSGLQ”, “not soluble”; to “MGSDKIHHHHHHMDDRPLFGPFARKGSYSRVQVFDHLFADDRFTALYQEIAILPEVDELMLYRRYLQKEDRVLVHGNFSATLFNTLCAEGYDLYLVESELTRIAGIADPYLHRVYGLSNEVVDVMGSHAFNKIILPGTTIARYSRGELLLFFRNIRHLLATDGQLLISIHNADYLRQNVQPIASRRMEDCTLFYGQKVDRDRLIFNTYLKSASDEKVGYVVEHLYETDTLFEFAKLSRYRGRTLYAGKSISILEFDKIG”, “not soluble”. Take “MSLKHEQIINEKIIIDTSIFTNPEVYQTFGNDPTDALRSFLEIISKLKGPIFYMPQTIYEELLNFVEIKDIQVDLQMLLQQKSPKRYELTVPAFLLYELIEDVRLRIDKGLRVAETAVRETSPDTEPEAIANLRKKYRMALREGIIDSKEDVDLILLAKEMDGIMMTADTGIVKWADKLGIRYIDPRMLRSILDKLAAASEGHHHHHH”: the “soluble on expression in E. coli” value is recorded as “soluble”.

For the origin of these results see the DeepSol protein solubility set.
